For series [1], the target named is T1, Kringle 5 of plasminogen (Homo sapiens, UniProt P00747).
T1 sequence (P00747 481-560 limits assumed): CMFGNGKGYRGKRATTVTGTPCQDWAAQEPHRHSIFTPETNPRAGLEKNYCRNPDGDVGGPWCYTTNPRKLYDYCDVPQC
Particulars: Chang et al. 1998; read-out: binding to kringle 5 of plasminogen; cited from earlier work.

Series [2] deals with factors IX and X. The following applies: Rao et al. 1988; cited from earlier work.
The target in series [3] is TF 1-218 (UniProt P13726).
Series [4] has as its target NV144 (UniProt P13726).
Series [5] addresses T2, blood coagulation factor VIIa (UniProt P08709 61-466).
T2 sequence (looked up): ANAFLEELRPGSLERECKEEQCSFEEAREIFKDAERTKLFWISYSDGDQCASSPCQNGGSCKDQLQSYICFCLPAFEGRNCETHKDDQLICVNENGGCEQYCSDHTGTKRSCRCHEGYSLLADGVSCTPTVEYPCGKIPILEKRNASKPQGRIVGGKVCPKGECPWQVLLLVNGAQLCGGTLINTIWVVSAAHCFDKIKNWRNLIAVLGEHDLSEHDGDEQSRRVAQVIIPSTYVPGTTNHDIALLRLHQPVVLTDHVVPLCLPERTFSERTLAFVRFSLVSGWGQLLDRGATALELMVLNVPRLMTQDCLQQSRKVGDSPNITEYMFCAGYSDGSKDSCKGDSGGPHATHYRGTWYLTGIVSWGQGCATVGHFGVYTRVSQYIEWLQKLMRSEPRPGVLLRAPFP
As to the kind of experiment: surface plasmon resonance, Biacore 2000.

In series [6] the target is T2, blood coagulation factor VIIa. Briefly: titration of the amidolytic activity of factor VIIa against protein concentration.
Series [7] relates to factor X. Briefly: Linked functional assay: factor Xa generation by protein:VIIa complex incubated with factor X. Particulars: for Relative Proteolytic Activity: factor Xa generation, TF 1-218 = 1.00. It is filed as biochemical.
The test system of series [8] is MAT B III breast carcinoma tumors. As to the kind of experiment: Syngeneic MAT B III rat breast carcinoma model. The following applies: NV144 alone. Format: in vivo, Fisher 344 rats. The source says: The MAT B III rat breast carcinoma is very malignant and fast-growing and, unlike many animal tumors, metastasizes. In addition, the tumor-bearing host lives sufficiently long to develop metastatic disease from the primary tumor. As such, the MAT-BIII tumor model has similar characteristics to human tumors.
Fisher 344 rats bearing MAT B III breast carcinoma tumors were used for these studies. Experiments were begun when the tumors reached approximately 170-200 mm3 in size (5-9 days; “day 0”). Tumors in saline treated controls grew very rapidly and reach a size of about 35,000 mm^3 at day 7. In the treatment groups, tumor-bearing rats were treated with NV144 or DOXIL (Sequus Pharmaceuticals, Inc.), either alone or in combination. In the clinic, DOXIL generally is administered at about 4 mg/kg.
At the highest dose of DOXIL (9 mg/kg), survival initially appeared to be similar in both groups of rats; however, none of the animals survived beyond day 23 due to the high dose of DOXIL.

Series [9] deals with C1300 neuroblastoma tumor spheroid. Briefly: Intravital microscopy of tumor vessels in skinfold chamber. Format: in vivo, A/J mouse. The following applies: infused over 30 min.
Series [10] deals with T3, factor VIIa (Homo sapiens, UniProt P08709).
T3 sequence (P08709 61-212 limits assumed): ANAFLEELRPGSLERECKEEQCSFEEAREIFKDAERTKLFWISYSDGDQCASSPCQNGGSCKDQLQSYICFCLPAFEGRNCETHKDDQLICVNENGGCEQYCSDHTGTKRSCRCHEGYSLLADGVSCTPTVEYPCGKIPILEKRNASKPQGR
T3 sequence (P08709 213-466 limits assumed): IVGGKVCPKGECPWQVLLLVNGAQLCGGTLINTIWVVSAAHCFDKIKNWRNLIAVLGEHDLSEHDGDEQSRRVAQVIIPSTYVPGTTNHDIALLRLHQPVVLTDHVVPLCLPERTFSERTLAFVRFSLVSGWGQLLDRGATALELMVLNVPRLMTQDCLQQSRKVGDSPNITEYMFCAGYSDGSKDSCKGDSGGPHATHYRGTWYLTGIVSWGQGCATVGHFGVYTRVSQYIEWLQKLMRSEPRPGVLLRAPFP
Briefly: Surface plasmon resonance (Biacore 2000) binding to factor VIIa. The following applies: by surface plasmon resonance and amidolytic titration. In general terms: In SPR one partner is held on a chip, and binding of the other changes the refractive index at the surface.

Entries after “also recorded” stand apart in the source; their conditions may differ. Where only a bound is given, the exact number is not on record here.

For `NCCCCCCC(=O)O` [7-aminoheptanoic acid], the Kd in series [1] was 367000 nM.
With `NCCCCC(=O)O` [5-aminopentanoic acid], the Kd in [1] is 580000 nM.
On to “TF: integral transmembrane protein receptor tissue factor, trigger of the coagulation cascade”, for which the “enhancement of enzymatic activation of substrate factors IX and X on binding of factor VIIa” value in series [2] was ≤ 5,000 fold.
With blood coagulation factor X, the Relative Proteolytic Activity in [3] was 1; in [4] it was 0.86.

B1: NV144 (other, human)
chain: PRKLYDGGGGSGGGGSGGGGSTTNTVAAYNLTWKSTNFKTILEWEPKPVNQVYTVQISTKSGDWKSKCFYTTDTECDLTDEIVKDVKQTYLARVFSYPAGNVESTGSAGEPLYENSPEFTPYLETNLGQPTIQSFEQVGTKVNVTVEDERTLVRRNNTFLSLRDVFGKDLIYTLYYWKSSSSGKKTAKTNTNEFLIDVDKGENYCFSVQAVIPSRTVNRKSTDSPVECMG
notes: range 3-211; also called CDFE; context-dependent functional entity
In the case of B1, the results for the Kd in series [5] and in series [6] were 3.22 nM and 4.32 nM, respectively.

B2: NV144: CDFE fusion polypeptide: truncated human TF domain, (Gly4Ser)3 spacer, plasminogen kringle 5 peptide Pro-Arg-Lys-Leu-Tyr-Asp (protein)
chain: B1 chain
Regarding B2, in series [7], the “rate of fluid phase factor Xa generation as compared to tTF” value is reported as “normal rate” and the “Relative Proteolytic Activity” value was determined as 0.86. For the same molecule, the “anti-tumor activity when administered alone” value in series [8] is “little or no effect; also recorded: no significant anti-tumor activity”. In addition, in series [9], the “effects on nearby vessels in skin and nearby angiogenic vessels” value is reported as “No similar effects”; the “rate of blood flow in the tumor” value is “general slowing”. Moreover, in series [9] (plasma leakage into extravascular space and hemorrhage), the “vascular permeability of tumor vessels” value was “significant and selective changes”. Further, the “affinity for factor VIIa compared with isolated truncated TF (tTF) domain alone” value in series [10] was “comparable”.

B3: TF 1-218 (receptor, human, UniProt P13726 33-250, looked up)
chain: SGTTNTVAAYNLTWKSTNFKTILEWEPKPVNQVYTVQISTKSGDWKSKCFYTTDTECDLTDEIVKDVKQTYLARVFSYPAGNVESTGSAGEPLYENSPEFTPYLETNLGQPTIQSFEQVGTKVNVTVEDERTLVRRNNTFLSLRDVFGKDLIYTLYYWKSSSSGKKTAKTNTNEFLIDVDKGENYCFSVQAVIPSRTVNRKSTDSPVECMGQEKGEFR
notes: range 1-218; also called isolated truncated TF (tTF) domain alone; tTF
For the molecule B3, the Kd in series [5] worked out at 3.26 nM; in [6] it was 4.73 nM. The “Relative Proteolytic Activity” value in series [7] worked out at 1.00.

Values taken from patent US6576610B1, “Use of a context-dependent functional entity to enhance the efficacy of an agent” (Nuvas, LLC, priority 1999, dated 2003).
